# Results taken from patent publication US20210122788A1 (SANFORD BURNHAM PREBYS MEDICAL DISCOVERY INSTITUTE, published 2021).
# T1: human HVEM Fc (human, UniProt Q92956 39-202)
# T1 construct: also called wild-type HVEM-Fc; not shown: human IgG1 Fc
# T1 sequence: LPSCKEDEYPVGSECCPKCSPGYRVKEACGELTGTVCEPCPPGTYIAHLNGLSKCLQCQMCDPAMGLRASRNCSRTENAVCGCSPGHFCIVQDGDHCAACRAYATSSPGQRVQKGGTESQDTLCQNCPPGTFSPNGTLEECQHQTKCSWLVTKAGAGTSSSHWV
# B1: human CD160 on cells (receptor)
# chain: GCINITSSASQEGTRLNLICTVWHKKEEAEGFVVFLCKDRSGDCSPETSLKQLRLKRDPGIDGVGEISSQLMFTISQVTPLHSGTYQCCARSQKSGIRLQGHFFSILFTETGNYTVTGLKQRQHLEFSHNEGTLS
# notes: whole, on cells; Transduced into EL4 or 293T cells; endogenous on NK92 and blood NK cells in the functional rows
# Molecular target: T1, human HVEM Fc
# Assay: flow cytometry on EL4 cells expressing human CD160
binder,measurement,value
B1,binding result,binds
